Source: PMC8278045
One block for each substance: values may come before it.

Key:
Experiment in all cases: affinity purification with mass spectrometry; GFP pull-down (µMACS/MultiMACS GFP Isolation Kit beads) from thylakoid membranes of GFP-labelled Syn7942 strains solubilised with 1% digitonin; label-free LC-MS/MS, abundances normalised to GFP, WT strain as control, triplicates
[1] = molecular target: PsaE of Photosystem I labelled with enhanced GFP (PSI–GFP) (Synechococcus elongatus PCC 7942) (UniProt Q31NL7)
Chain of UniProt Q31NL7 (Q31NL7 whole entry): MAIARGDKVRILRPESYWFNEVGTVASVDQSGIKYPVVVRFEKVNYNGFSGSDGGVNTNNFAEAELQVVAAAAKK

[2] = molecular target: PsbB (CP47) of Photosystem II labelled with enhanced GFP (PSII–GFP) (Synechococcus elongatus PCC 7942) (UniProt P31094)
Chain of UniProt P31094 (P31094 whole entry): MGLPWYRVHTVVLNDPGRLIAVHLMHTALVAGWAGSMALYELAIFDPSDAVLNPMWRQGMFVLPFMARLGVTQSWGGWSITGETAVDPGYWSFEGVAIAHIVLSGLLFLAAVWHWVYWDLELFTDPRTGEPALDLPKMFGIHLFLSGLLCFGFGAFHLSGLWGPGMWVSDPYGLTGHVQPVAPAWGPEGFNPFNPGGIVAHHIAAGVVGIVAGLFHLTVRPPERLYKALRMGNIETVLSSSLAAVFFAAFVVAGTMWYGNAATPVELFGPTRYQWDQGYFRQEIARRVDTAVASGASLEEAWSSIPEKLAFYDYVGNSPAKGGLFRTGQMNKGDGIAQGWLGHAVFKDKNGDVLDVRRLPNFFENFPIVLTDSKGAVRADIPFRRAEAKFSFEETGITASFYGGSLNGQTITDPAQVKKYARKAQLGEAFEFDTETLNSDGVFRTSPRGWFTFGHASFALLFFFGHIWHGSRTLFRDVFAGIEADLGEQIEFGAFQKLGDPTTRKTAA

[3] = molecular target: PetA of Cytochrome b6f labelled with enhanced GFP (Cyt b6f–GFP) (Synechococcus elongatus PCC 7942) (UniProt Q31NV8)
Chain of UniProt Q31NV8 (Q31NV8 31-324): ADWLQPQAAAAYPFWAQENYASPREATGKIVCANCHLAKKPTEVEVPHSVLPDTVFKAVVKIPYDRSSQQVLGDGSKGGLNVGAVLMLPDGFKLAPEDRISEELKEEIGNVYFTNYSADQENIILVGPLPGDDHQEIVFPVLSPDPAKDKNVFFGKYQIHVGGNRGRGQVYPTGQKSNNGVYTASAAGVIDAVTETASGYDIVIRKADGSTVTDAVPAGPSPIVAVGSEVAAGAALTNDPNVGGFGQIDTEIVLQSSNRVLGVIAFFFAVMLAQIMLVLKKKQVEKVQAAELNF

percent of PSI associated with Cyt b6f [1]: 0.3% | percent of PSII associated with Cyt b6f [2]: 1.98%
Substance: Cytochrome b6f (Cyt b6f) (from UniProt Q31KG3 1-37) (complex)

percent of Cyt b6f associated with PSI [3]: 4.1% | percent of PSII associated with PSI [2]: 9.9%
Substance: Photosystem I (PSI) (from UniProt P0A421 1-139; P0A402 24-164; P0A426 5-83) (complex)

percent of Cyt b6f associated with PSII [3]: 2% | percent of PSI associated with PSII [1]: 1.72%
Substance: Photosystem II (PSII) (from UniProt P31094 1-508; Q31M07 29-136; Q31LM9 31-167; Q31LS7 1-40) (complex)
